From article PMC3135652 (Journal of immunology (Baltimore, Md. : 1950), 2009)

Biological target: T1, Recombinant truncated p115 (p115 702-962), carboxy-terminal histidine tag (human, UniProt O60763 702-962)
T1 sequence (looked up): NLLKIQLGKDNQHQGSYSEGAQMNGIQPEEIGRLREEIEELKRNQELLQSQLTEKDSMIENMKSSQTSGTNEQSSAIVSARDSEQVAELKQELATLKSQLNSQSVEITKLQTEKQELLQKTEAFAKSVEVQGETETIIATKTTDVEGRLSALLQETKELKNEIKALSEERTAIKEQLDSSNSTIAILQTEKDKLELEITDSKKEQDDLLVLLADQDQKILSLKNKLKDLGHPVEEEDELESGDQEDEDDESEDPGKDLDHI
Test: ELISA

B1: Biotinylated recombinant human MIF (natural protein, UniProt P14174 1-115, looked up)
chain: MPMFIVNTNVPRASVPDGFLSELTQQLAQATGKPPQYIAVHVVPDQLMAFGGSSEPCALCSLHSIGKIGGAQNRSYSKLLCGLLAERLRISPDRVYINYYDMNAANVGWNNSTFA
modifications: biotin (Biotin Protein Labeling Kit, Roche)
Does B1 bind?
Result: binds
